# Target: human CD20 (entire coding sequence, expressed on the cell surface after LTR-CD20-LTR retroviral transduction) (human) (UniProt P11836)
# Assay: cell-based or functional assay
# UniProt P11836, sequence (P11836 whole entry): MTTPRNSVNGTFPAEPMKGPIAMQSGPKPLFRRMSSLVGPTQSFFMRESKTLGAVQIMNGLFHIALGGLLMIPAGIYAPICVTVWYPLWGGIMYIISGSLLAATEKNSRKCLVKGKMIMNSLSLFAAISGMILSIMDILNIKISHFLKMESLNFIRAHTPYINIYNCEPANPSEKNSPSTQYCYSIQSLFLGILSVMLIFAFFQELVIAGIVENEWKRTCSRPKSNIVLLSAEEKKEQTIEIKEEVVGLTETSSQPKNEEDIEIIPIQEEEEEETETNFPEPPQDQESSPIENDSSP
substance,measurement,value
"Rituximab (Roche), humanised monoclonal antibody against CD20","% specific lysis, Rituximab alone (Donor 1, 30% CD3/CD20+ lymphocytes)",0%
same,"% specific lysis, Rituximab alone (Donor 2, 23% CD3/CD20+ lymphocytes)",0%
same,"% specific lysis, Rituximab alone (Donor 3, 15% CD3/CD20+ lymphocytes)",0%
same,"% specific lysis, Rituximab plus complement (Donor 1, 30% CD3/CD20+ lymphocytes)",33%
same,"% specific lysis, Rituximab plus complement (Donor 2, 23% CD3/CD20+ lymphocytes)",35%
same,"% specific lysis, Rituximab plus complement (Donor 3, 15% CD3/CD20+ lymphocytes)",18%
same,death of the CD3/CD20+ cells after one hour exposure (complement-dependent cytotoxicity),90%

# Source: patent US20070014785A1
